B1: ATL3 (parent)
chain: FSFRYQQELEEEIKELYENFCKHN

Variants of: B1
Experiment: protein stability index of a GFP-peptide fusion (GPS, HEK-293T) (PSI 1-6); higher = more stable
Settings: c terminus: a fixed tail appended
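Further: lentivirally expressed fusions sorted by FACS into six bins by GFP to DsRed ratio, PSI derived from sequencing read proportions per bin multiplied by bin number.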

Variant | protein stability index
FSFRTQQELEEEIKELYENFCKHN [Y5T] | 3.09
FSFRQQQELEEEIKELYENFCKHN [Y5Q] | 2.63
FSFRPQQELEEEIKELYENFCKHN [Y5P] | 3.45
FSFRHQQELEEEIKELYENFCKHN [Y5H] | 2.84
FSFRSQQELEEEIKELYENFCKHN [Y5S] | 3.35
FSFRKQQELEEEIKELYENFCKHN [Y5K] | 2.93
FSFRLQQELEEEIKELYENFCKHN [Y5L] | 2.13
FSFRRQQELEEEIKELYENFCKHN [Y5R] | 3.56
FSFRVQQELEEEIKELYENFCKHN [Y5V] | 1.93
FSFRAQQELEEEIKELYENFCKHN [Y5A] | 3.51
FSFRDQQELEEEIKELYENFCKHN [Y5D] | 3.55
FSFRMQQELEEEIKELYENFCKHN [Y5M] | 3.4
FSFRYQRELEEEIKELYENFCKHN [Q7R] | 2.3
FSFRYQPELEEEIKELYENFCKHN [Q7P] | 3.07
FSFRYQDELEEEIKELYENFCKHN [Q7D] | 2.35
FSFRYQHELEEEIKELYENFCKHN [Q7H] | 2.2
FSFRYQGELEEEIKELYENFCKHN [Q7G] | 3.13
FSFRYQFELEEEIKELYENFCKHN [Q7F] | 1.65
FSFRYQVELEEEIKELYENFCKHN [Q7V] | 2.17
FSFRYQAELEEEIKELYENFCKHN [Q7A] | 2.04
FSFRYQCELEEEIKELYENFCKHN [Q7C] | 2.15
FSFRYQIELEEEIKELYENFCKHN [Q7I] | 1.75
FSFRYQTELEEEIKELYENFCKHN [Q7T] | 2.59
FSFRYQEELEEEIKELYENFCKHN [Q7E] | 2.64

Variant | protein stability index
FSFRYQSELEEEIKELYENFCKHN [Q7S] | 2.24
FSFRYQLELEEEIKELYENFCKHN [Q7L] | 1.92
FSFRYQNELEEEIKELYENFCKHN [Q7N] | 2.51
FSFRYQKELEEEIKELYENFCKHN [Q7K] | 2.46
FSFRYQWELEEEIKELYENFCKHN [Q7W] | 1.84
FSFRYQMELEEEIKELYENFCKHN [Q7M] | 2.39
FSFRYQYELEEEIKELYENFCKHN [Q7Y] | 2.91
HSFRYQQELEEEIKELYENFCKHN [F1H] | 3.35
RSFRYQQELEEEIKELYENFCKHN [F1R] | 1.95
VSFRYQQELEEEIKELYENFCKHN [F1V] | 2.54
KSFRYQQELEEEIKELYENFCKHN [F1K] | 3.01
WSFRYQQELEEEIKELYENFCKHN [F1W] | 1.95
ESFRYQQELEEEIKELYENFCKHN [F1E] | 4.04
NSFRYQQELEEEIKELYENFCKHN [F1N] | 3.74
CSFRYQQELEEEIKELYENFCKHN [F1C] | 3.11
DSFRYQQELEEEIKELYENFCKHN [F1D] | 3.8
YSFRYQQELEEEIKELYENFCKHN [F1Y] | 2.33
PSFRYQQELEEEIKELYENFCKHN [F1P] | 3.43
QSFRYQQELEEEIKELYENFCKHN [F1Q] | 3.11
ASFRYQQELEEEIKELYENFCKHN [F1A] | 2.78
ISFRYQQELEEEIKELYENFCKHN [F1I] | 2.46
TSFRYQQELEEEIKELYENFCKHN [F1T] | 3.87
SSFRYQQELEEEIKELYENFCKHN [F1S] | 3.89
GSFRYQQELEEEIKELYENFCKHN [F1G] | 3.93

Variant | protein stability index
LSFRYQQELEEEIKELYENFCKHN [F1L] | 3.32
MSFRYQQELEEEIKELYENFCKHN [F1M] | 2.03
FSFRYSQELEEEIKELYENFCKHN [Q6S] | 2
FSFRYYQELEEEIKELYENFCKHN [Q6Y] | 2.24
FSFRYTQELEEEIKELYENFCKHN [Q6T] | 2.04
FSFRYWQELEEEIKELYENFCKHN [Q6W] | 1.51
FSFRYIQELEEEIKELYENFCKHN [Q6I] | 1.57
FSFRYCQELEEEIKELYENFCKHN [Q6C] | 2.38
FSFRYEQELEEEIKELYENFCKHN [Q6E] | 2.16
FSFRYDQELEEEIKELYENFCKHN [Q6D] | 2.35
FSFRYHQELEEEIKELYENFCKHN [Q6H] | 2.03
FSFRYAQELEEEIKELYENFCKHN [Q6A] | 2.21
FSFRYKQELEEEIKELYENFCKHN [Q6K] | 2.26
FSFRYLQELEEEIKELYENFCKHN [Q6L] | 2.19
FSFRYMQELEEEIKELYENFCKHN [Q6M] | 2.08
FSFRYVQELEEEIKELYENFCKHN [Q6V] | 2.11
FSFRYNQELEEEIKELYENFCKHN [Q6N] | 2.06
FSFRYGQELEEEIKELYENFCKHN [Q6G] | 2.67
FSFRYPQELEEEIKELYENFCKHN [Q6P] | 2.09
FSFRYFQELEEEIKELYENFCKHN [Q6F] | 2.1
FSFRYRQELEEEIKELYENFCKHN [Q6R] | 2.03
FNFRYQQELEEEIKELYENFCKHN [S2N] | 2.37
FRFRYQQELEEEIKELYENFCKHN [S2R] | 2.62
FIFRYQQELEEEIKELYENFCKHN [S2I] | 1.7

Variant | protein stability index
FYFRYQQELEEEIKELYENFCKHN [S2Y] | 2.73
FCFRYQQELEEEIKELYENFCKHN [S2C] | 3.27
FPFRYQQELEEEIKELYENFCKHN [S2P] | 2.63
FGFRYQQELEEEIKELYENFCKHN [S2G] | 2.53
FTFRYQQELEEEIKELYENFCKHN [S2T] | 2.36
FEFRYQQELEEEIKELYENFCKHN [S2E] | 2.52
FFFRYQQELEEEIKELYENFCKHN [S2F] | 1.75
FKFRYQQELEEEIKELYENFCKHN [S2K] | 2.58
FHFRYQQELEEEIKELYENFCKHN [S2H] | 2.29
FLFRYQQELEEEIKELYENFCKHN [S2L] | 1.85
FAFRYQQELEEEIKELYENFCKHN [S2A] | 2.51
FQFRYQQELEEEIKELYENFCKHN [S2Q] | 2.6
FDFRYQQELEEEIKELYENFCKHN [S2D] | 2.93
FMFRYQQELEEEIKELYENFCKHN [S2M] | 1.52
FWFRYQQELEEEIKELYENFCKHN [S2W] | 1.8
FVFRYQQELEEEIKELYENFCKHN [S2V] | 1.65
FSFRYQQECEEEIKELYENFCKHN [L9C] | 3.22
FSFRYQQEFEEEIKELYENFCKHN [L9F] | 2.16
FSFRYQQEEEEEIKELYENFCKHN [L9E] | 2.11
FSFRYQQEGEEEIKELYENFCKHN [L9G] | 2.75
FSFRYQQEAEEEIKELYENFCKHN [L9A] | 2.6
FSFRYQQEDEEEIKELYENFCKHN [L9D] | 3.2

— the supplement of paper PMC10567573
